Data as given in article PMC4439256 (Experimental cell research, 2015).

Legend:
[1] = target: T1, human DNA helicase B (human, UniProt Q8NG08 1-1087); assay: co-IP
[2] = target: HDHB helicase domain (aa 394-958) (human, UniProt Q8NG08 394-958); assay: pull-down
[3] = target: HDHB N-terminus (aa 1-393) (human, UniProt Q8NG08 1-393); assay: pull-down
[4] = target: T1, human DNA helicase B; assay: pull-down

T1 sequence (Q8NG08 whole entry, the tested form may be a part): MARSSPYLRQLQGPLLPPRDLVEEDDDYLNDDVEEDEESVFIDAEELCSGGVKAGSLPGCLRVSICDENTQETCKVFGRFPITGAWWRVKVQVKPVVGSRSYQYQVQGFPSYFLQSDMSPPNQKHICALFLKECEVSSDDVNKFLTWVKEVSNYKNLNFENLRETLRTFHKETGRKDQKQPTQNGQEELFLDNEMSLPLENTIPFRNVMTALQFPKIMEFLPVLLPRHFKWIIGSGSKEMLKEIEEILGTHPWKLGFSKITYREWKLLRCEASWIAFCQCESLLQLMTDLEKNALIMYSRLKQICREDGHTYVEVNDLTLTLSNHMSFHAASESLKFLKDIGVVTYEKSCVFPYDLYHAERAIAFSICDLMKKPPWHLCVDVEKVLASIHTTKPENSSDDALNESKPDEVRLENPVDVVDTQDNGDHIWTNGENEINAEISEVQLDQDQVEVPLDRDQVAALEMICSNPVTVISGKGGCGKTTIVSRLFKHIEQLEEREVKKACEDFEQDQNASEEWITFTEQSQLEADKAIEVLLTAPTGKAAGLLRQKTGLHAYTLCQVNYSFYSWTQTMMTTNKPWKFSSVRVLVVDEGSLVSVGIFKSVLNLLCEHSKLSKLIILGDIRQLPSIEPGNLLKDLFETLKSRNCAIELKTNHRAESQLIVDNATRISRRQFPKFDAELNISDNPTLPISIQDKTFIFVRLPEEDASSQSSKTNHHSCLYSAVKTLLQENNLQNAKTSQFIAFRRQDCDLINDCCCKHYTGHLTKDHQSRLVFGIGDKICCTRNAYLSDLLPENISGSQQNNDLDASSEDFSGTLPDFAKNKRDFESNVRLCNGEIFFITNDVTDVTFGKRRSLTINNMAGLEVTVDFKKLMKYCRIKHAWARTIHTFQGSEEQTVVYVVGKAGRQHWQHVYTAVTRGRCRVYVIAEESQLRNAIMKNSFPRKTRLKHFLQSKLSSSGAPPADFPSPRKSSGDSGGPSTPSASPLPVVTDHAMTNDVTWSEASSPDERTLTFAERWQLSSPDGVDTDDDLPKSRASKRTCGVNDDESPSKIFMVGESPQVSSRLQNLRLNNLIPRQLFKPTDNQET
Chain of HDHB helicase domain (aa 394-958) (Q8NG08 394-958): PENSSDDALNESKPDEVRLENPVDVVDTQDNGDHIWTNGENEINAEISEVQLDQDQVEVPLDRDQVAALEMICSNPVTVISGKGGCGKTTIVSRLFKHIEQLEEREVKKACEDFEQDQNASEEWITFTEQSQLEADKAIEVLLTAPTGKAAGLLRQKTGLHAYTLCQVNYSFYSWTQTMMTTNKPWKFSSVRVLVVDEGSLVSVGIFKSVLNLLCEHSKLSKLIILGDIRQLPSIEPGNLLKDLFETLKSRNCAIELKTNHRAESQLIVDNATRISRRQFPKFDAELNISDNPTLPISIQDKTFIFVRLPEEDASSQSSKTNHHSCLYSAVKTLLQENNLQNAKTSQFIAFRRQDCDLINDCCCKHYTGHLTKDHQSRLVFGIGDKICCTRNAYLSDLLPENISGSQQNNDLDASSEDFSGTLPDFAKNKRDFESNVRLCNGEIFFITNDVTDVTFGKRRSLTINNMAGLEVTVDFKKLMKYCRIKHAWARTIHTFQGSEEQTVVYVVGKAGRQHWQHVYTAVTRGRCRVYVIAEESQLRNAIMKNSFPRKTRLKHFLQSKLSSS
Chain of HDHB N-terminus (aa 1-393) (Q8NG08 1-393): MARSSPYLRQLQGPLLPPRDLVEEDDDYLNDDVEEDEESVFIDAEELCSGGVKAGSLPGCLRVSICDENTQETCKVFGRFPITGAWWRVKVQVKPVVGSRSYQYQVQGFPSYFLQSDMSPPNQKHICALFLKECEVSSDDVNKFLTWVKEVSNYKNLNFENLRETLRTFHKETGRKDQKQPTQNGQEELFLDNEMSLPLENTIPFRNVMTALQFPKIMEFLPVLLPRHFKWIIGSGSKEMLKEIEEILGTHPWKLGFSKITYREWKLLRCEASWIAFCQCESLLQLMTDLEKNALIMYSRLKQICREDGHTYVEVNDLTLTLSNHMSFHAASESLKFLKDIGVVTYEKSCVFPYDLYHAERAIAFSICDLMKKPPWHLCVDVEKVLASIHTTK

Row | binding result [1] | binding result [2] | binding result [3] | binding result [4] | Binder
1 | binds |  |  |  | His-Cdc45 (natural protein, human, UniProt O75419 1-566, looked up) MFVSDFRKEFYEVVQSQRVLLFVASDVDALCACKILQALFQCDHVQYTLVPVSGWQELETAFLEHKEQFHYFILINCGANVDLLDILQPDEDTIFFVCDTHRPVNVVNVYNDTQIKLLIKQDDDLEVPAYEDIFRDEEEDEEHSGNDSDGSEPSEKRTRLEEEIVEQTMRRRQRREWEARRRDILFDYEQYEYHGTSSAMVMFELAWMLSKDLNDMLWWAIVGLTDQWVQDKITQMKYVTDVGVLQRHVSRHNHRNEDEENTLSVDCTRISFEYDLRLVLYQHWSLHDSLCNTSYTAARFKLWSVHGQKRLQEFLADMGLPLKQVKQKFQAMDISLKENLREMIEESANKFGMKDMRVQTFSIHFGFKHKFLASDVVFATMSLMESPEKDGSGTDHFIQALDSLSRSNLDKLYHGLELAKKQLRATQQTIASCLCTNLVISQGPFLYCSLMEGTPDVMLFSRPASLSLLSKHLLKSFVCSTKNRRCKLLPLVMAAPLSMEHGTVTVVGIPPETDSSDRKNFFGRAFEKAAESTSSRMLHNHFDLSVIELKAEDRSKFLDALISLLS
2 |  | binds | binds | binds | GST-tagged Cdc45N (1-303) (domain or fragment, human, UniProt O75419 1-303, looked up) MFVSDFRKEFYEVVQSQRVLLFVASDVDALCACKILQALFQCDHVQYTLVPVSGWQELETAFLEHKEQFHYFILINCGANVDLLDILQPDEDTIFFVCDTHRPVNVVNVYNDTQIKLLIKQDDDLEVPAYEDIFRDEEEDEEHSGNDSDGSEPSEKRTRLEEEIVEQTMRRRQRREWEARRRDILFDYEQYEYHGTSSAMVMFELAWMLSKDLNDMLWWAIVGLTDQWVQDKITQMKYVTDVGVLQRHVSRHNHRNEDEENTLSVDCTRISFEYDLRLVLYQHWSLHDSLCNTSYTAARFKLW
